What was measured:
[1] = biological target: α-L-rhamnosidase from Klebsiella oxytoca (KoRha) (Klebsiella oxytoca KCTC 1686); assay: dynamic light scattering; purified KoRha in solution, DynaPro-Titan instrument, 20°C; hydrodynamic radius 4.8 nm
purified protein = substrate: C[C@@H]1O[C@@H](Oc2ccc([N+](=O)[O-])cc2)[C@H](O)[C@H](O)[C@H]1O; assay: purified protein; assay type: biochemical, Klebsiella oxytoca; settings: 20 mM MES pH 5.0, 10% DMSO in substrate solution

With “α-L-rhamnosidase from Klebsiella oxytoca (KoRha) (enzyme)” the stoichiometry N [1] was 2.

B1: KoRha (Klebsiella oxytoca) (protein)
chain: MSQAIQHNSQVMMTRHPNFLRTAEALRPALSRQAHPPIAVVEAHADAAALFGWRAEPVSTLAAFYQRELSSGDSVIIDFGSHYVGYLHFLCQSAGSPPDAPAHLQLTFGETLSEVCEPFSDYQGWLSSSWLQQQDLWLDVLPAEIDLPRRYCFRYLKVEVKAVSRKFRLQFTQIEVNAVTSASGACPAATTSDPQLRAIDNVAVLTLQNCMQEVFEDGPKRDRRLWLGDLRLQALVNDVTFARHDLVRRCLYLFAGHTREDGMVSANVFVQPDVIADDTFLFDYSLFFVDVLYNYLQSAEDMATARELWPTARRQVELALTRCDASGVVRDSDDWWVFIDWQASLNKQAAAQGVLIYCLQRAIWLAERFEPELAVSYRQRLQQLKSAALDALWDPQQGFYVSGARRQVSWASQIWLVLAEVGTPQQRREIMRNLEKNPPAVAMNTPYLRHHYIAALLQCGLRDEAIAQIKAYWGAMVDYGADTFWEIFDPAHPDFSPYGSKLINSYCHAWSCTPAWFIRQYGL
notes: synthetic codon-optimised gene in pET15b, E. coli BL21(DE3); residues 11-523 modelled
B1 was tested, and the Km (purified protein) was 210 ± 20 µM and the kcat (purified protein) was 0.98 s⁻¹.

— PMC4690510, “Crystal structure of a novel two domain GH78 family α-rhamnosidase from Klebsiella oxytoca with rhamnose bound” (Proteins, 2015)
